Measurements from patent US20150376264A1 (CALIFORNIA INSTITUTE FOR BIOMEDICAL RESEARCH, published 2015).

Biological target: Leptin receptor
Experiment: cell-based or functional assay

EC50 (Baf3-LepR cell proliferation, AlamarBlue): 0.0575 nM
B1: BLV1H12 hLeptin fusion protein (antibody, human IgG1)
heavy: not shown
light: QAVLNQPSSVSGSLGQRVSITCSGSSSNVGNGYVSWYQLIPGSAPRTLIYGDTSRASGVPDRFSGSRSGNTATLTISSLQAEDEADYFCASAEDSSSNAVFGSGTTLTVLGQPKSPPSVTLFPPSTEELNGNKATLVCLISDFYPGSVTVVWKADGSTITRNVETTRASKQSNSKYAASSYLSLTSSDWKSKGSYSCEVTHEGSTVTKTVKPSECS
